The nature of this data set: protein stability index of a GFP-peptide fusion (GPS, HEK-293T) (PSI 1-6); higher = more stable.
[1] abbreviates: treatment: DMSO, c terminus: a fixed tail appended.
[2] abbreviates: treatment: MLN4924 1 uM, 8 h, c terminus: a fixed tail appended.
Where [3] appears, read: treatment: DMSO, c terminus: native.
The mark [4] stands for this setting: treatment: MLN4924 1 uM, 8 h, c terminus: native.

± gives the standard deviation.
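Further: 24-mer peptide tiles fused after GFP, lentivirally expressed, FACS-sorted into six equal bins by GFP/DsRed ratio, decoded by Illumina sequencing, PSI is the read-weighted mean bin number.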

With LTCDSAQKCHSIGETDEVTKTEDR [ZSCAN9], the protein stability index is 5.27 ± 0.34 under setting [1] and 5.59 ± 0.13 under setting [2].
Take LTSDLYAPMVAGALARLGTVTVIS [SLC25A39]: the protein stability index runs as follows: under setting [1], 2.92 ± 0.4; under setting [2], 2.67 ± 0.69.
The like results for LVCTADGDIHLSPEEPAASTDPNI [TAF7L] were, in that order, 4.85 ± 0.2 and 4.89 ± 0.22.
On the same counts, the results for LVEELSPASEKKPVPPSEGKSRLS [BCL2L13] are 5.32 ± 0.31 and 5.46 ± 0.15.
On the same counts, the results for LVKDNPQRSYFLRIFDIKDGKLLW [WASL] are 1.99 ± 0.28 and 2.05 ± 0.36.
Consider LVLRRQLKNKCCPPPCKFGEGKLS [C22orf31], for which the protein stability index is, setting by setting: under setting [1], 2.21 ± 0.31; under setting [2], 2.52 ± 0.34.
On the same counts, the results for LVMEGTDDGRLLEYDTVTREVKVL [APMAP] are 3.5 ± 0.21 and 3.58 ± 0.37.
The like results for LVNHVNIRLQAELEEGENPVPAFQ [SMG5] were, in that order, 4.04 ± 0.091 and 4.07 ± 0.17.
With LVQLDDYRFASAGDDGIVVVWNAQ [WDR41], the protein stability index runs as follows: under setting [1], 2.64 ± 0.28; under setting [2], 2.87 ± 0.31.
The like results for LVQLEDEITTLRQVLSAKERHLVE [TPD52L1] were, in that order, 2.85 ± 0.16 and 3.04 ± 0.44.
The like results for LWGRTQEEAEELAKEMSVPFYTSR [GFOD1] were, in that order, 3.4 ± 0.18 and 3.61 ± 0.32.
For LYPALKGVNTVFHCASPPPSSNNK [NSDHL], the protein stability index runs as follows: under setting [1], 3.47 ± 0.064; under setting [2], 3.52 ± 0.16.
Consider LYSRTGDIVEFVCKSGYHPTKSHS [CFHR2], for which the protein stability index is, setting by setting: under setting [1], 2.15 ± 0.16; under setting [2], 2.45 ± 0.4.
On the same counts, the results for LYSSSLGGGVATSPMLIVFHGKYS [GLT8D2] are 2.38 ± 0.48 and 2.44 ± 0.52.
The like results for LYVLKGGYKEFFMKCQSYCEPPSY [CDC25A] were, in that order, 2.62 ± 0.68 and 2.65 ± 0.27.
With MAAAQEADGARSAVVAAGGGSSGQ [CLPTM1], the protein stability index by setting is: under setting [1], 5.36 ± 0.26; under setting [2], 5.29 ± 0.2.
On the same counts, the results for MADKAKPAKAANRTPPKSPGDPSK [TPPP] are 5.22 ± 0.25 and 5.39 ± 0.15.
As for MAERLEDSVLKGMQAASSKMVSAE [SDE2], the protein stability index by setting is: under setting [1], 4.54 ± 0.36; under setting [2], 4.55 ± 0.24.
On the same counts, the results for MAGAIAQGLIRAGKVEAQHILASA [PYCR3] are 2.18 ± 0.18 and 2.31 ± 0.32.
On the same counts, the results for MARVAWGLLWLLLGSAGAQYEKYS [P3H4] are 3.18 ± 0.83 and 3.16 ± 0.48.
The like results for MASRAGPRAAGTDGSDFQHRERVA [JAGN1] were, in that order, 4.67 ± 0.31 and 4.7 ± 0.13.
In the case of MASSAASSEHFEKLHEIFRGLHED [VTI1B], the protein stability index amounted to 4.29 ± 0.16 under setting [1] and 4.28 ± 0.1 under setting [2].
With MAYDQFLAICRPLTYSTRMSQTVQ [OR3A1], the protein stability index under setting [1] was 2.25 ± 0.33 and the protein stability index under setting [2] was 2.21 ± 0.29.
Regarding MDPGWGQRDVGWAALLILFAASLL [C2CD2L], the protein stability index under setting [1] was 2.34 ± 0.24 and the protein stability index under setting [2] amounted to 2.26 ± 0.31.
The like results for MFSFNMFDHPIPRVFQNRFSTQYR [UFD1] were, in that order, 2.13 ± 0.17 and 2.22 ± 0.22.
On the same counts, the results for MGSLSSRVLRQPRPALAQQAQGAR [GMCL1] are 4.46 ± 0.28 and 4.56 ± 0.18.
On the same counts, the results for MGSQGSPVKSYDYLLKFLLVGDSD [RAB40C] are 2.29 ± 0.28 and 2.37 ± 0.099.
With MHANVEDRGIKGDITPLMAAANGG [ANKRD17], the protein stability index runs as follows: under setting [1], 4.58 ± 0.14; under setting [2], 4.67 ± 0.086.
The like results for MHLNFMDEKDRIITAFYNEARARA [DNAJC4] were, in that order, 2.92 ± 0.35 and 2.98 ± 0.19.
The like results for MLNEPLVREIVKECSNIPLSQPQQ [GAN] were, in that order, 3.85 ± 0.2 and 3.95 ± 0.077.
The like results for MLSLKKYLTEGLLQFTILLSLIGV [NFE2L1] were, in that order, 3.33 ± 0.27 and 2.82 ± 0.47.
For MMLFNDGTFQVNFYHDHTKIIICS [PLK2], the protein stability index amounted to 2.79 ± 0.83 under setting [1] and 2.88 ± 0.86 under setting [2].
On to MPCLLMELRRDSSESQLASTESDK [C18orf25], for which the protein stability index by setting is: under setting [1], 4.73 ± 0.05; under setting [2], 4.55 ± 0.22.
The like results for MRGRIYLEPPTMRKKRLLDRKVLL [GOLPH3L] were, in that order, 2.34 ± 0.27 and 2.47 ± 0.29.
On the same counts, the results for MSELFLHTPSDTGVSFQAISSMAD [PKD2L1] are 3.41 ± 0.15 and 3.61 ± 0.27.
With MSFVAGVIRRLDETVVNRIAAGEV [MLH1], the protein stability index under setting [1] was 2.85 ± 0.35.
On to MSGGGVIRGPAGNNDCRIYVGNLP [SRSF1], for which the protein stability index by setting is: under setting [1], 2.85 ± 0.29; under setting [2], 2.96 ± 0.51.
On the same counts, the results for MSIHIVALGNEGDTFHQDNQPSGL [RHOBTB3] are 2.51 ± 0.25 and 2.52 ± 0.4.
With MSRQFTCKSGAAAKGGFSGCSAVL [KRT71], the protein stability index turned out to be 2.59 ± 0.35 under setting [1] and 2.18 ± 0.43 under setting [2].
On the same counts, the results for MSVAIRKRSWEEHVTHWMGQPFNS [DLC1] are 2.41 ± 0.65 and 2.43 ± 0.18.
Consider MTLEEFSAGEQKTERMDKVGDALE [GADD45A], for which the protein stability index came to 5.28 ± 0.15 under setting [1] and 5.36 ± 0.18 under setting [2].
On the same counts, the results for MVILISIVIFCLETLPELKDDKDF [KCNA1] are 3.03 ± 0.71 and 2.72 ± 0.52.
For the sequence MVLLTMIARVADGLPLAASMQEDE [SEC22B], the protein stability index worked out at 3.26 ± 0.71 under setting [1] and 2.94 ± 0.2 under setting [2].
The like results for MVVSREEVELAYQEAMFNMATLNR [SEPHS2] were, in that order, 2.93 ± 0.29 and 3.03 ± 0.2.
The sequence MWWRGCKIKAIMALVAAILLLVII [VAMP4] had a protein stability index under setting [1] of 2.89 ± 0.096 and a protein stability index under setting [2] of 2.855 ± 0.027.
Turning to MYDNELWAPASEGLKPGPEDGPGK [SERTAD1], the protein stability index came to 4.99 ± 0.46 under setting [1] and 5.25 ± 0.22 under setting [2].
On the same counts, the results for NAGKVNLPKELPADAVNLTIPASL [PLAGL1] are 4.4 ± 0.25 and 4.43 ± 0.22.
Take NARAQQRAAAQQRRSFLNAHHRSG [GNAS]: the protein stability index under setting [1] turned out to be 4.28 ± 0.32 and the protein stability index under setting [2] was determined as 4.36 ± 0.14.
The like results for NASRSLYPDAEDPQLGLDGPGEPD [PSD2] were, in that order, 5.4 ± 0.2 and 5.51 ± 0.22.
With NCLPKHLLHSVNQRFGSNNTSGS [KLHDC2], the protein stability index by setting is: under setting [3], 2.69 ± 0.33; under setting [4], 2.99 ± 0.28.
The sequence NDADKAINTLNGLKLQTKTIKVSY [ELAVL3] came in with a protein stability index under setting [1] of 2.96 ± 0.23 and a protein stability index under setting [2] of 3.11 ± 0.25.
NDPSGSEEADFLSAETGSPRLTMH [IRX6] registered a protein stability index under setting [1] of 5.16 ± 0.083 and a protein stability index under setting [2] of 5.2 ± 0.057.
On the same counts, the results for NDSGICMSPESYLGSPQHSPSTRG [ATF4] are 4.53 ± 0.29 and 4.86 ± 0.15.
On the same counts, the results for NFEKLRLSLQDQVDTLTFQSQSLR [MTUS2] are 3.01 ± 0.22 and 3.14 ± 0.37.
NHLLESMPLREGSSFQDLLGDALA [HES6]: the protein stability index by setting is: under setting [1], 3.34 ± 0.31; under setting [2], 3.4 ± 0.31.
On the same counts, the results for NILLKNLVTIARKASLWQFLSSEK [TRIM43] are 2.17 ± 0.42 and 2.13 ± 0.18.
The like results for NIPMETEETHLEETTESQQNGEEG [SMARCE1] were, in that order, 5.39 ± 0.5 and 5.6 ± 0.21.
On the same counts, the results for NKEYIKRLLMSQADKMTAEEVDQM [MYL5] are 4.53 ± 0.28 and 4.48 ± 0.23.
As to NKINAGMYILSPAVLRRIQLQPTS [GMPPB], the protein stability index by setting is: under setting [1], 2.24 ± 0.24; under setting [2], 2.28 ± 0.38.
On the same counts, the results for NKLPEGVPQPARMPYISDKHPRQT [KLHL20] are 4.69 ± 0.12 and 4.77 ± 0.15.
The like results for NKRKTYTESYIARPDGDCASSLNG [ZC2HC1A] were, in that order, 4.18 ± 0.23 and 4.44 ± 0.3.
On to NKTLLRLRLRKERVSDVQKVLQGG [PKD2L1], for which the protein stability index runs as follows: under setting [1], 2.65 ± 0.23; under setting [2], 2.94 ± 0.35.
In the case of NLGGGDPKGWRQLAQEAEAWLNYP [OAS1], the protein stability index is 3.22 ± 0.26 under setting [1] and 3.37 ± 0.26 under setting [2].
The like results for NNKKWILSASKDRTMRLWNIEEID [WDR88] were, in that order, 2.66 ± 0.12 and 2.86 ± 0.44.
In the case of NNWPPLPSFCPVQPCFFQDISMEI [SCAMP3], the protein stability index came out at 2.4 ± 0.53 under setting [1] and 2.55 ± 0.5 under setting [2].
The like results for NPQRQGLLKTPWRAASAMQFFTKG [GCH1] were, in that order, 2.89 ± 0.29 and 2.76 ± 0.21.
On to NPYHQPYISRKYFATRPGAIETAM [TPRG1], for which the protein stability index is 2.22 ± 0.18 under setting [1] and 2.52 ± 0.25 under setting [2].
In the case of NVGRVHRVAKKLQSGLVWTNCWLI [ALDH8A1], the protein stability index was found to be 3.04 ± 0.41 under setting [1] and 2.61 ± 0.49 under setting [2].
For NVVPIHVPPTTENKPKVQCCQNI [RAB11A], the protein stability index under setting [3] stood at 4.13 ± 0.19 and the protein stability index under setting [4] turned out to be 4.12 ± 0.11.
On the same counts, the results for NWVIPAISAVAVALMYRLYMAED [CYB5A] are 3.92 ± 0.12 and 4.02 ± 0.19.
As to NYRSFEPILRLLPQGISPVSQHWA [ZER1], the protein stability index was found to be 2 ± 0.27 under setting [1] and 2.09 ± 0.26 under setting [2].
Consider PAADGARAPRSPGQVTPRGLRLRL [C6orf223], for which the protein stability index came to 3.96 ± 0.12 under setting [1] and 3.97 ± 0.19 under setting [2].

(Values after the supplement of paper PMC10567573.)
